Measured values from patent publication US20220089699A1 (AstraZeneca / MedImmune, published 2022).

Biological target: T1, biotinylated ClfA001 (Staphylococcus aureus)
T1 chain: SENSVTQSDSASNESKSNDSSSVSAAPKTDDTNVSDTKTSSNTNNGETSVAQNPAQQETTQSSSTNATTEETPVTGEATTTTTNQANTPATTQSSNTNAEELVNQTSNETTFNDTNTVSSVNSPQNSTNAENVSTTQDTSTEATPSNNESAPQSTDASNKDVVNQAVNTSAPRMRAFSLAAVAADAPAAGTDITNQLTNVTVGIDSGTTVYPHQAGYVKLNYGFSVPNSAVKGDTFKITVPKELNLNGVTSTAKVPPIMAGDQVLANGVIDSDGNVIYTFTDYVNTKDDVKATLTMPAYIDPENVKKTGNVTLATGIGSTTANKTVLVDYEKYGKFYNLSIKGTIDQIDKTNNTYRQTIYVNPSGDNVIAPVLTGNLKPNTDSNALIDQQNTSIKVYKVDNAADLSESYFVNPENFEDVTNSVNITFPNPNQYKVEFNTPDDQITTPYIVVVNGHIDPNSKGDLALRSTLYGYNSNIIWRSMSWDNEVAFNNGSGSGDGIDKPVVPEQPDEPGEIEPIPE
Assay: fibrinogen-binding inhibition ELISA: biotinylated ClfA001 (2 µg/ml) on a fibrinogen-coated plate, antibody titrated

B1: SAR114 (antibody, V domains shown)
VH: QVQLQESGPGLVKPSETLSLTCTVSGGSIQNSYWSWIRQPPGKGLEWIGYLYSSGRTNYTPSLKSRVTISVDTSKNQFSLKLSSVTAADTAVYYCARTHLGGFHYGGGFWFDPWGQGTLVTVSS
VL: DIQMTQSPSSLSASVGDRVTITCRASQSITSYLNWYQQKPGKAPKLLIYASSSLQSGVPSRFSGSGSGTDFTLTISSLQPEDFATYYCQESYSTPPTFGQGTKVEIK
notes: also called anti-ClfA mAb SAR114
IC50: 3.02 µg/mL
